# Experimental data taken from patent US20240043533A1 (NGM BIOPHARMACEUTICALS, published 2024).
# Like-named read-outs stand apart in the source and are kept apart here.
# T1: extracellular domain of cyno ILT3 (cynoILT3-ECD) (cynomolgus monkey)
# T1 chain: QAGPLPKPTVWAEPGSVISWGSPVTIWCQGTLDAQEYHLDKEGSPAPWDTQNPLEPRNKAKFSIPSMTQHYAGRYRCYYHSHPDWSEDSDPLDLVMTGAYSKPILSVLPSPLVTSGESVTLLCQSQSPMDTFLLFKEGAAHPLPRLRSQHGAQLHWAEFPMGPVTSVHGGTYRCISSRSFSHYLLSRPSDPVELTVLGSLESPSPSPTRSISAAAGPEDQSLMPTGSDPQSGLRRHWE
# T2: cynomolgus ILT3 expressed on cells (THP-1 reporter cells transduced with cyno ILT3); cyno monocyte-derived … (cynomolgus monkey)
# T2 chain: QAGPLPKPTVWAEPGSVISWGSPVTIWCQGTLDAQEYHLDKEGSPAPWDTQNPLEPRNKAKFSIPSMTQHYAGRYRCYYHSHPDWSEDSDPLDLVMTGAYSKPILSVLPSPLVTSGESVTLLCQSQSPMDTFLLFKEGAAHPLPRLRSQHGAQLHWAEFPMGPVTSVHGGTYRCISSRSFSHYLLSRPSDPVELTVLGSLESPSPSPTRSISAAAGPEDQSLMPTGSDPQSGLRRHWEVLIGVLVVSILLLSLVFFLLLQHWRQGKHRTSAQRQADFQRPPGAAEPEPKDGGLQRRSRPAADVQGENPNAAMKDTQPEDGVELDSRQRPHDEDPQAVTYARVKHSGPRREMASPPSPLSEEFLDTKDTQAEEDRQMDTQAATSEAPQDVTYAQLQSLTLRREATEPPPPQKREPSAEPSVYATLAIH
# B1: anti-ILT3 antibody ch5A7 (parental chimeric 5A7) (antibody, V domains shown)
# VH: EVKLVESGGGLVKPGGSLKLSCAASGFTFSSYGMSWVRQTPEKRLEWVATISGGGSYTNYPDSVKGRLTISRDNAKKNLYLEMSSLRSEDTALYYCARREWRMTLYAMDYWGQGTSVTVSS
# VL: NIVLTQSPASLAVSLGQRATISCRASESVDSYGNSFMHWYQQKPGQAPKLLIYLTSNLESGVPARFSGSGSRTDFTLTIDPVEADDAATYYCQQNNEDPFTFGSGTKLEIK
# B2: anti-ILT3 antibody 48A6 (antibody, V domains shown)
# VH: EVQLVESGGDLMKPGGSLKLSCAASGFTFSSYGMSWVRQTPDKRLEWVATISSGGTYTFYPDSVKGRFTISRDNAKNTLYLQMSSLKSEDTAMYYCARRGWLLHYYAMDYWGQGTSVTVSS
# VL: NIVLTQSPASLAVSLGQRATISCRPSESVDSFGNSFMHWFQQKPGQPPKLLIYLSSKLESGVPARFSGSGSRTDFTLTIDPVEADDAATYYCQQHNEDPFTFGSGTKLEIK
# notes: Mouse monoclonal antibody from hybridoma
# B3: anti-ILT3 antibody 5A7 (antibody, V domains shown)
# VH: EVKLVESGGGLVKPGGSLKLSCAASGFTFSSYGMSWVRQTPEKRLEWVATISGGGSYTNYPDSVKGRLTISRDNAKKNLYLEMSSLRSEDTALYYCARREWRMTLYAMDYWGQGTSVTVSS
# VL: NIVLTQSPASLAVSLGQRATISCRASESVDSYGNSFMHWYQQKPGQAPKLLIYLTSNLESGVPARFSGSGSRTDFTLTIDPVEADDAATYYCQQNNEDPFTFGSGTKLEIK
# notes: as for B2
# B4: anti-ILT3 antibody Hz5A7.v5 (antibody, human IgG1, kappa, N297G, V domains shown)
# VH: EVQLVESGGGLVQPGGSLRLSCAASGFTFSSYGMSWVRQAPGKGLEWVATISGGGSYTNYPDSVKGRFTISRDNAKNSLYLQMNSLRAEDTAVYYCARREWRYTLYAMDYWGQGTTVTVSS
# VL: DIQLTQSPSFLSASVGDRVTITCRASESVESYGSSFMHWYQQKPGKAPKLLIYLTSNLESGVPSRFSGSGSGTEFTLTISSLQPEDFATYYCQQNNEDPFTFGQGTKLEIKR
# notes: Humanized 5A7 variant
# What was measured:
# [1] = molecular target: ILT3 extracellular domain chimeric receptor on NFAT-GFP reporter cells (human); assay: cell-based or functional assay
# [2] = molecular target: T3, extracellular domain of human ILT3 (huILT3-ECD) (human, UniProt Q8NHJ6 22-259); assay: SPR (Biacore), antibody captured via anti-Fc on CM5 chip, soluble ILT3-ECD injected, 37 C
# T3 construct: also called human ILT3-ECD
# Procedure: (§1) The binding affinities of anti-ILT3 antibodies to human ILT3 and cyno ILT3 were measured using a Biacore system (GE Healthcare LifeSciences). Briefly, anti-Fc antibody (Sigma-Aldrich) was immobilized on all four flow cells of a CM5 chip using amine coupling reagents (GE Healthcare LifeSciences). Antibodies were captured on flow cells 2, 3, and 4 using flow cell 1 as a reference. Concentrations ranging from 3.3-10 nM of human or cyno ILT3-ECD were injected at a flow rate of 50 μL/min at 37° C. Kinetic data were collected over time and fit using the simultaneous global fit equation to yield affinity constants (KD values) for each antibody.
# (§2) The binding affinity of Hz5A7.v5 to human ILT3 and cyno ILT3 was determined using a Biacore system as described herein and compared with the binding affinity of the parental chimeric 5A7 (ch5A7) antibody and humanized 5A7 without any CDR modifications (Hz5A7.v1) (see Table 12).
# [3] = molecular target: T1, extracellular domain of cyno ILT3 …; assay: as above
# Procedure: as §1, §2
# Cyno LILRB5 = molecular target: T4, Cyno LILRB5 (Macaca fascicularis, UniProt A0A2K5VIP6); assay: FACS on cells expressing cyno LILRB5, labeled anti-mouse Fc secondary antibody
# T4 construct: expressed on the cell surface; also called cynomolgus LILRB5
# T4 sequence (A0A2K5VIP6 entry or part of it): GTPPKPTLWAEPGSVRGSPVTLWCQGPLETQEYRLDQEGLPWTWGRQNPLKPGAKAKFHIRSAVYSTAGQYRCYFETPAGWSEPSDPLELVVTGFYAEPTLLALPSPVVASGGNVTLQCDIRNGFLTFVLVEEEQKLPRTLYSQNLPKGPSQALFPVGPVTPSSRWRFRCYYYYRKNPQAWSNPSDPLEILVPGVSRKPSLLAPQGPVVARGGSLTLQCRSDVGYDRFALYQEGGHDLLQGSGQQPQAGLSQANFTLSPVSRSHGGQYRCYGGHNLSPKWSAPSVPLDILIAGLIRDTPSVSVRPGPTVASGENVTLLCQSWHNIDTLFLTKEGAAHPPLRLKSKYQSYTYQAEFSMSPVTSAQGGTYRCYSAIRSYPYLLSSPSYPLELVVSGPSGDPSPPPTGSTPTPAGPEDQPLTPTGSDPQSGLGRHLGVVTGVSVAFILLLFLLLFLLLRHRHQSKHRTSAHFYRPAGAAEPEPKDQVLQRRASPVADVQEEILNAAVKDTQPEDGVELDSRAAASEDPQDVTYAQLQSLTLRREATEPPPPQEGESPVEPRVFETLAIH
# Procedure: (§3) ELISA assays were used to screen antibodies against human ILT3 and human LILRA1,2,4-6. […] These antibodies were rescreened by FACS for binding to human ILT3 and cyno ILT3 expressed on HEK-293T cells. The antibodies that bound to both human and cyno ILT3 were selected. This subset of antibodies were screened by FACS against human LILRB1-5 (ILT2, ILT4, ILT5, ILT3, and LILRB5, respectively), cyno LILRB5, and human LILRA1,2,4-6. For FACS screening, each antibody was incubated with cells expressing human ILT3, cyno ILT3, one of the LILRA proteins, or one of the LILRB proteins for 30 minutes at 4° C. After washing, the cells were incubated with labeled anti-mouse Fc antibody for 30 minutes at 4° C. After washing, cells were analyzed on a flow cytometer. Antibodies were selected on the criteria of binding to human ILT3, cyno ILT3, no or limited binding to other LILRB proteins, and no or limited binding to LILRA proteins.
# human LILRB2 = molecular target: T5, human LILRB2 (human, UniProt Q8N423 22-597); assay: FACS on cells expressing human LILRB2, labeled anti-mouse Fc secondary antibody
# T5 construct: whole, on cells; also called ILT4
# T5 sequence (Q8N423 22-597): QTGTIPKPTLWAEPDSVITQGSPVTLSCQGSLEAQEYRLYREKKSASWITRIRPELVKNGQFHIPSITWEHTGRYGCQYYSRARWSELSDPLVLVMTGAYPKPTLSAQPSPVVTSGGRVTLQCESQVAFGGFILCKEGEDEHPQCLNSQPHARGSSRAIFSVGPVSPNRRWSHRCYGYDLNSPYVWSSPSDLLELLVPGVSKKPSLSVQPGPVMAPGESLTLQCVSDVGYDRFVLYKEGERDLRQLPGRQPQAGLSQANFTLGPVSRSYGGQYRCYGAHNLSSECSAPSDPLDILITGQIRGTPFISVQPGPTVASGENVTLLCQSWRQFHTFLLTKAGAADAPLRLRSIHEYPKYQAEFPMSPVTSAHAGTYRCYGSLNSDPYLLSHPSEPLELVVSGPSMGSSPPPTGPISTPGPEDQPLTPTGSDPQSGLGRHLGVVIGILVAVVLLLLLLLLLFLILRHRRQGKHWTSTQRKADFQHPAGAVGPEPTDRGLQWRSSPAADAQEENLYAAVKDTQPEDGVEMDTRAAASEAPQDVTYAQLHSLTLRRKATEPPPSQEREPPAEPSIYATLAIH
# Procedure: as §3
# LILRB3 = molecular target: T6, LILRB3 (human, UniProt O75022); assay: FACS on cells expressing human LILRB3, labeled anti-mouse Fc secondary antibody
# T6 construct: expressed on the cell surface; also called human LILRB3; ILT5
# T6 sequence (O75022 24-631 limits assumed): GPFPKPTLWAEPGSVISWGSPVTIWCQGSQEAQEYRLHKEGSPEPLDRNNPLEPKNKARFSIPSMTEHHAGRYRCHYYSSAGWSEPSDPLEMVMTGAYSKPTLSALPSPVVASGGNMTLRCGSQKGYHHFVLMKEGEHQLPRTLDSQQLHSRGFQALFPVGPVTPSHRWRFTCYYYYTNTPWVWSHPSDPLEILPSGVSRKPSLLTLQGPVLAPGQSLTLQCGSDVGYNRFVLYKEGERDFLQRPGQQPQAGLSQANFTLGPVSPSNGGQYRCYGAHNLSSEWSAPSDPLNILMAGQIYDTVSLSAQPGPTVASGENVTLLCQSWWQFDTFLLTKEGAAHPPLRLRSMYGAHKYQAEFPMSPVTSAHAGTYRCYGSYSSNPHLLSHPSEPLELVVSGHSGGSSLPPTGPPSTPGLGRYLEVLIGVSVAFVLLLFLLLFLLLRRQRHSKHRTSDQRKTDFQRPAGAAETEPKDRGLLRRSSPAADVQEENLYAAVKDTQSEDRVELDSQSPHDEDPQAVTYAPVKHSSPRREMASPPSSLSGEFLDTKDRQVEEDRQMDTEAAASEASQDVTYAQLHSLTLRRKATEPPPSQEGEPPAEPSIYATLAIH
# Procedure: as §3
# LILRB5 = molecular target: T7, LILRB5 (human, UniProt O75023); assay: FACS on cells expressing human LILRB5, labeled anti-mouse Fc secondary antibody
# T7 construct: expressed on the cell surface; also called human LILRB5; CD85C
# T7 sequence (O75023 24-590 limits assumed): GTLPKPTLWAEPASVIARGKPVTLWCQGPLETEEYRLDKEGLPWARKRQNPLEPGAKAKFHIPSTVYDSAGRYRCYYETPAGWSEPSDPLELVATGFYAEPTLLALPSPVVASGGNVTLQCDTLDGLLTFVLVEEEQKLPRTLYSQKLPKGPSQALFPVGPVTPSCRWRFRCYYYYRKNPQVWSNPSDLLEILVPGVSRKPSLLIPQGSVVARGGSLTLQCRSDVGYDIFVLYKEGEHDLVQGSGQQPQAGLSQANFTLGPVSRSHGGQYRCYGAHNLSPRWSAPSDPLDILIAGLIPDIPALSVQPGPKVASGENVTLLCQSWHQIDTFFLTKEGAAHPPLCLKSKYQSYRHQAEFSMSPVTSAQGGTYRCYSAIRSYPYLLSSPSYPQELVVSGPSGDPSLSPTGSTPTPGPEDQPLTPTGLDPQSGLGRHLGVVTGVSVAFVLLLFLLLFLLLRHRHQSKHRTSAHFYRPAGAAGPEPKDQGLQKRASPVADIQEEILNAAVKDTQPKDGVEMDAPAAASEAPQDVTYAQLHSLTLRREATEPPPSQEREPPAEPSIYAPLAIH
# Procedure: as §3
# human LILRA1 = molecular target: T8, human LILRA1 (human, UniProt O75019 17-489); assay: FACS on cells expressing human LILRA1, labeled anti-mouse Fc secondary antibody
# T8 construct: whole, on cells
# T8 sequence (O75019 17-489): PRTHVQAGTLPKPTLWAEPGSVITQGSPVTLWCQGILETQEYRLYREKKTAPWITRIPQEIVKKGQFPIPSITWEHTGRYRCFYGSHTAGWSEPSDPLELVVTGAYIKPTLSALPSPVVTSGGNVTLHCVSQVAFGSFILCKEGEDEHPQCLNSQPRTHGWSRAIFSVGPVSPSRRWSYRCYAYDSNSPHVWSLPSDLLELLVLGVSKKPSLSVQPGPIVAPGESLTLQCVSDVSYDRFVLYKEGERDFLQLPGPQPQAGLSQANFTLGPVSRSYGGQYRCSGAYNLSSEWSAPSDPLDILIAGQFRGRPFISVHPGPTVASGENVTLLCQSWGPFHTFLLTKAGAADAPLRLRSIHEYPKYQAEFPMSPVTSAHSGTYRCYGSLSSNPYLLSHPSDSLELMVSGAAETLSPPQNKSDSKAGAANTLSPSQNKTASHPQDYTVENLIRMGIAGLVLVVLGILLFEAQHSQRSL
# Procedure: as §3
# human LILRA2 = molecular target: T9, human LILRA2 (human, UniProt Q8N149 24-483); assay: FACS on cells expressing human LILRA2, labeled anti-mouse Fc secondary antibody
# T9 construct: whole, on cells
# T9 sequence (Q8N149 24-483): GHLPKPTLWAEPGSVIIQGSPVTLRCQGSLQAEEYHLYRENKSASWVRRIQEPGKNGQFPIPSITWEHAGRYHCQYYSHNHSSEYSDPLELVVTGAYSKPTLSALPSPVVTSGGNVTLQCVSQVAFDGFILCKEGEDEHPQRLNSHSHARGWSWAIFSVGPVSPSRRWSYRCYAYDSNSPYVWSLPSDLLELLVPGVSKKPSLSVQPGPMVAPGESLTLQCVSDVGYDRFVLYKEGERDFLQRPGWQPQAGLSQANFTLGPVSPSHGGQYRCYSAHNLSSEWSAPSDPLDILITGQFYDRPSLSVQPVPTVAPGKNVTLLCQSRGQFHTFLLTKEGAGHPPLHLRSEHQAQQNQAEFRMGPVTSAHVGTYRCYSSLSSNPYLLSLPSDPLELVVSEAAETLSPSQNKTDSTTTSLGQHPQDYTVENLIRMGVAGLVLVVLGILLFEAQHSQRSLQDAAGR
# Procedure: as §3
# human LILRA4 = molecular target: T10, human LILRA4 (human, UniProt P59901 24-499); assay: FACS on cells expressing human LILRA4, labeled anti-mouse Fc secondary antibody
# T10 construct: whole, on cells
# T10 sequence (P59901 24-499): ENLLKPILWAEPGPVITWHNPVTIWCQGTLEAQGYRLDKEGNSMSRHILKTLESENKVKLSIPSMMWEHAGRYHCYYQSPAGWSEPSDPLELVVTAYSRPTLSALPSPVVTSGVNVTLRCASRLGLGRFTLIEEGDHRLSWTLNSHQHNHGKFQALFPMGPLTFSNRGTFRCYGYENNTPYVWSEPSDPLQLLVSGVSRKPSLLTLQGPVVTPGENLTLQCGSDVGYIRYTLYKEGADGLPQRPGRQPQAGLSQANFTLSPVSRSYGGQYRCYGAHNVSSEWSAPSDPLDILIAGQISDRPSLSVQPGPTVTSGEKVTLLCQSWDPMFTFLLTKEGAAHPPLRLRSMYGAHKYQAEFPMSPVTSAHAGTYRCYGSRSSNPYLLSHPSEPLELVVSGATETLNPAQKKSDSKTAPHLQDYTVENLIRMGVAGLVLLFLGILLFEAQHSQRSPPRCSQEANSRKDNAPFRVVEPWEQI
# Procedure: as §3
# human LILRA5 = molecular target: T11, human LILRA5 (human, UniProt A6NI73 42-299); assay: FACS on cells expressing human LILRA5, labeled anti-mouse Fc secondary antibody
# T11 construct: whole, on cells
# T11 sequence (A6NI73 42-299): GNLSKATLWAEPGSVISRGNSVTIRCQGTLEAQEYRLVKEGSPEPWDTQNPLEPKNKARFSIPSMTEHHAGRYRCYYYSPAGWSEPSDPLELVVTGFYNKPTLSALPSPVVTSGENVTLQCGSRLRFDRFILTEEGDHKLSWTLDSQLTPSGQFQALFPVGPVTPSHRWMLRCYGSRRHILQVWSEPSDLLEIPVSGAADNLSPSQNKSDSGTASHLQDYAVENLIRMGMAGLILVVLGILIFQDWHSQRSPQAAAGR
# Procedure: as §3
# human LILRA6 = molecular target: T12, human LILRA6 (human, UniProt Q6PI73 24-447, limits assumed); assay: FACS on cells expressing human LILRA6, labeled anti-mouse Fc secondary antibody
# T12 construct: Read out of the printed 'LILRA1,2,4-6'
# T12 sequence (Q6PI73 24-447 limits assumed): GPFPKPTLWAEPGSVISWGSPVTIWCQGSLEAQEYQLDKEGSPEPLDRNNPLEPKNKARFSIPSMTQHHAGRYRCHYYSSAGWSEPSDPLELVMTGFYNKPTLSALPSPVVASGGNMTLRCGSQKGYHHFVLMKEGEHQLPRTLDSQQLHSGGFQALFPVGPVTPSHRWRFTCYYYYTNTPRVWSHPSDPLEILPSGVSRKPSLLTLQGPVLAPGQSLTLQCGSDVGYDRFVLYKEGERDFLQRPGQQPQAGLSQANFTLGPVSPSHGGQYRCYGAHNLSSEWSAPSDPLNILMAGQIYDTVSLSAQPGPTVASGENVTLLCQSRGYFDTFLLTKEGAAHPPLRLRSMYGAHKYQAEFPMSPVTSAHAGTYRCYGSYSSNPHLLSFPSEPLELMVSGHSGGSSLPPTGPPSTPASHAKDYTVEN
# Procedure: as §3
# [4] = molecular target: T3, extracellular domain of human ILT3 …; assay: SPR (Biacore), antibody captured via anti-Fc on CM5 chip, soluble ILT3-ECD injected, 37 C; remark: listed apart in the source
# Procedure: as §1
# [5] = molecular target: T1, extracellular domain of cyno ILT3 …; assay: as above
# Procedure: as §1
# LILRB4 = molecular target: T13, LILRB4; assay: FACS on cells expressing human LILRB4 (ILT3), labeled anti-mouse Fc secondary antibody
# T13 construct: the construct expressed on the cells is not described further; also called human ILT3 expressed on cells for the FACS screen; ILT3
# T13 sequence (receptor, as listed by the source limits assumed): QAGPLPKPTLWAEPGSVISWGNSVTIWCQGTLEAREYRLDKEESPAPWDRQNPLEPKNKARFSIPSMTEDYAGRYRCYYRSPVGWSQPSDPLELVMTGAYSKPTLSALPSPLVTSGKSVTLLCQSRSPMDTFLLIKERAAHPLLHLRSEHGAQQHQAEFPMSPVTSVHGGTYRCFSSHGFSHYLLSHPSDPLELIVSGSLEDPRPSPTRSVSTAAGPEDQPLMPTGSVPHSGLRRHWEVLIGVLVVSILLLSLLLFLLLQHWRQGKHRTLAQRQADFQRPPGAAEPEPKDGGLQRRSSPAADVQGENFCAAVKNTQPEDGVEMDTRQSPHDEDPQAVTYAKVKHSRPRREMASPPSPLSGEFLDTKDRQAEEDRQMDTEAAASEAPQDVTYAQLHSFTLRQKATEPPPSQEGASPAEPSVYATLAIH
# Procedure: as §3
# [6] = molecular target: T2, cynomolgus ILT3 expressed on cells …; assay: cell-based or functional assay
Binder,Kd [2],koff [2],kon [2],Kd [3],koff [3],kon [3],binding result (Cyno LILRB5),binding result (human LILRB2),binding result (LILRB3),binding result (LILRB5),binding result (human LILRA1),binding result (human LILRA2),binding result (human LILRA4),binding result (human LILRA5),binding result (human LILRA6),Kd [4],koff [4],kon [4],Kd [5],koff [5],also measured
B1,0.57 nM,0.0017 s⁻¹,2.9e+06 M⁻¹ s⁻¹,2.4 nM,0.018 s⁻¹,7.5e+06 M⁻¹ s⁻¹,–,–,–,–,–,–,–,–,–,–,–,–,–,–,IC50 (read off the curve) [1]: ~0.01 nM
B2,–,–,–,–,–,–,no binding (tested: log [Ab] about -7.2 M (about 6e-8 M)),no binding (tested: log [Ab] about -7.2 M (about 6e-8 M)),binds,no binding (tested: log [Ab] about -7.2 M (about 6e-8 M)),no binding (tested: log [Ab] about -7.2 M (about 6e-8 M)),no binding (tested: log [Ab] about -7.2 M (about 6e-8 M)),no binding (tested: log [Ab] about -7.2 M (about 6e-8 M)),no binding (tested: log [Ab] about -7.2 M (about 6e-8 M)),no binding (tested: log [Ab] about -7.2 M (about 6e-8 M)),< 0.1 nM,1.8e-07 s⁻¹,7e+06 M⁻¹ s⁻¹,1.7 nM,0.024 s⁻¹,kon [5]: 1.4e+07 M⁻¹ s⁻¹; EC50 (read off the curve) (LILRB4): ~0.2 nM
B3,–,–,–,–,–,–,no binding (tested: log [Ab] about -7.2 M (about 6e-8 M)),no binding (tested: log [Ab] about -7.2 M (about 6e-8 M)),no binding (tested: log [Ab] about -7.2 M (about 6e-8 M)),no binding (tested: log [Ab] about -7.2 M (about 6e-8 M)),no binding (tested: log [Ab] about -7.2 M (about 6e-8 M)),no binding (tested: log [Ab] about -7.2 M (about 6e-8 M)),no binding (tested: log [Ab] about -7.2 M (about 6e-8 M)),no binding (tested: log [Ab] about -7.2 M (about 6e-8 M)),no binding (tested: log [Ab] about -7.2 M (about 6e-8 M)),0.028 nM,0.00011 s⁻¹,3.8e+06 M⁻¹ s⁻¹,0.66 nM,0.0022 s⁻¹,kon [5]: 3.3e+06 M⁻¹ s⁻¹; EC50 (read off the curve) (LILRB4): ~0.3 nM
B4,0.28 nM,0.00081 s⁻¹,2.8e+06 M⁻¹ s⁻¹,0.7 nM,0.0071 s⁻¹,1.1e+07 M⁻¹ s⁻¹,–,–,–,–,–,–,–,–,–,–,–,–,–,–,EC50 (read off the curve) [6]: ~0.2 nM
